Molecular target: E.amu APN ectodomain, His-tagged (for cryo-EM) (Erinaceus amurensis)
Assay: cryo-EM structure

## EriCoV RU15-1 RBD, His-tagged (for cryo-EM, BLI and SPR) (domain or fragment)
  share of the total particles that are the complex: 5%

From article doi:10.1101/2025.09.16.676546
